Source: patent US20030044896

T1: Mas-DH[K22Q]+Gly
T1 chain: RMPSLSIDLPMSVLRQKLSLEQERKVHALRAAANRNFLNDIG

T2: Mas-DH+Gly (42 amino acid precursor of Manduca sexta diuretic hormone)
T2 chain: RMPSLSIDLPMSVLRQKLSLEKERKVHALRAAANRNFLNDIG

B1: Yap3 endoprotease (Yeast Aspartyl Protease 3, encoded by YAP3) (protein)
chain: ADGYEEIIITNQQSFYSVDLEVGTPPQNVTVLVDTGSSDLWIMGSDNPYCSSNSMGSSRRRVIDKRDDSSSGGSLINDINPFGWLTGTGSAIGPTATGLGGGSGTATQSVPASEATMDCQQYGTFSTSGSSTFRSNNTYFSISYGDGTFASGTFGTDVLDLSDLNVTGLSFAVANETNSTMGVLGIGLPELEVTYSGSTASHSGKAYKYDNFPIVLKNSGAIKSNTYSLYLNDSDAMHGTILFGAVDHSKYTGTLYTIPIVNTLSASGFSSPIQFDVTINGIGISDSGSSNKTLTTTKIPALLDSGTTLTYLPQTVVSMIATELGAQYSSRIGYYVLDCPSDDSMEIVFDFGGFHINAPLSSFILSTGTTCLLGIIPTSDDTGTILGDSFLTNAYVVYDLENLEISMAQARYNTTSENIEIITSSVPSAVKAPGYTNTWSTSASIVTGGNIFTVNSSQTASFSGNLTTSTASATSTSSKRN
B2: Mkc7 endoprotease (encoded by MKC7) (protein)
chain: DDDYELVELTNQNSFYSVELDIGTPPQKVTVLVDTGSSDLWVTGSDNPYCSTKKKDTTGSSFKQVNKDALASVVESVFTEISYDTTIVTSEATATFDSTASTSQLIDCATYGTFNTSKSSTFNSNNTEFSIAYGDTTFASGTWGHDQLSLNDLNITGLSFAVANETNSTVGVLGIGLPGLESTYSGVSLSSVQKSYTYNNFPMVLKNSGVIKSTAYSLFANDSDSKHGTILFGAVDHGKYAGDLYTIPIINTLQHRGYKDPIQFQVTLQGLGTSKGDKEDNLTTLTTTKIPVLLDSGTTISYMPTELVKMLADQVGATYSSAYGYYIMDCIKEMEEESSIIFDFGGFYLSNWLSDFQLVTDSRSNICILGIAPQSDPTIILGDNFLANTYVVYDLDNMEISMAQANFSDDGEYIEIIESAVPSALKAPGYSSTWSTYESIVSGGNMFSTAANSSISYFASTSHSATSSSSSKGQKTQTSTTALSISKSTSSTSSTGMLSPTSSSSTRKEN

How the values were obtained:
Mas-DH[K22Q]+Gly = molecular target: T1, Mas-DH[K22Q]+Gly
[1] = molecular target: T2, Mas-DH+Gly (42 amino acid precursor of …)

Protein	proteolytic fragments recovered from culture medium of the mkc7 deletion strain HKY21[pKSC3] (RPLC, ESI-MS) (Mas-DH[K22Q]+Gly)	proteolytic fragments recovered from culture medium of protease deletion strains (RPLC, ESI-MS) [1]	proteolytic fragments recovered from culture medium of the yap3 deletion strain HKY20[pKSC3] (RPLC, ESI-MS) (Mas-DH[K22Q]+Gly)
B1	suggesting that Yap3 cleaved after Arg at the two sites E R ↓ K V and L R ↓ Q K	both Yap3 and Mkc7 are capable of contributing to the cleavage of Mas-DH+Gly at the Lys^22 residue, as well as at other sites	
B2		both Yap3 and Mkc7 are capable of contributing to the cleavage of Mas-DH+Gly at the Lys^22 residue, as well as at other sites	suggesting that Mkc7 cleaved after Lys^25
